Measurements from IntAct's records for PubMed 31515488.

B1: Mothers against decapentaplegic homolog 4 (Homo sapiens), Q13485 (parent)
chain: MDNMSITNTPTSNDACLSIVHSLMCHRQGGESETFAKRAIESLVKKLKEKKDELDSLITAITTNGAHPSKCVTIQRTLDGRLQVAGRKGFPHVIYARLWRWPDLHKNELKHVKYCQYAFDLKCDSVCVNPYHYERVVSPGIDLSGLTLQSNAPSSMMVKDEYVHDFEGQPSLSTEGHSIQTIQHPPSNRASTETYSTPALLAPSESNATSTANFPNIPVASTSQPASILGGSHSEGLLQIASGPQPGQQQNGFTGQPATYHHNSTTTWTGSRTAPYTPNLPHHQNGHLQHHPPMPPHPGHYWPVHNELAFQPPISNHPAPEYWCSIAYFEMDVQVGETFKVPSSCPIVTVDGYVDPSGGDRFCLGQLSNVHRTEAIERARLHIGKGVQLECKGEGDVWVRCLSDHAVFVQSYYLDREAGRAPGDAVHKIYPSAYIKVFDLRQCHRQMQQQAATAQAAAAAQAAAVAGNIPGPGSVGGIAPAISLSAAAGIGVDDLRRLCILRMSFVKGWGPDYPRQSIKETPCWIEIHLHRALQLLDEVLHTMPIADPQPLD

Variants of: B1
Conditions: with ews_human EWSR1, Q01844
Chain of ews_human EWSR1, Q01844 (Q01844 whole entry): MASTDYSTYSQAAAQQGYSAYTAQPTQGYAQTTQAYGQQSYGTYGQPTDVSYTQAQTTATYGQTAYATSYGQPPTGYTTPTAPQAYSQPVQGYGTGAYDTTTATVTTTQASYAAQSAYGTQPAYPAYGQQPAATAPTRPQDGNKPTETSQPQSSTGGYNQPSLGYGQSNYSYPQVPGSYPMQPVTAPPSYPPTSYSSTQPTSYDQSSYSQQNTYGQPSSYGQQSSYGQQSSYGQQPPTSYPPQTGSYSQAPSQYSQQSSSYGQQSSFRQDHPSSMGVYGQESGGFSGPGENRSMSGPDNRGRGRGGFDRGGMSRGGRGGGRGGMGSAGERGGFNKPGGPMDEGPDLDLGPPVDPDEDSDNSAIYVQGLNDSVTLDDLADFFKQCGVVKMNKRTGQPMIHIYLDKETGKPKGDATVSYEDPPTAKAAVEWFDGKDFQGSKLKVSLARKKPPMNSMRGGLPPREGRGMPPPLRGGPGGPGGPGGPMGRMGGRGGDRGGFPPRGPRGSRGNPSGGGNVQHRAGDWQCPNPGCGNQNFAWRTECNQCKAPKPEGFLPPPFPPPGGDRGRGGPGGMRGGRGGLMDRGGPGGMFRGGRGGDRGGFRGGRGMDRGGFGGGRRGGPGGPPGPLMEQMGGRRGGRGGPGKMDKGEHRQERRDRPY

Variant | effect of a mutation on the interaction
R189C | with no effect
V539G | disrupting interaction strength
R76I | with no effect
L533F | with no effect

Variants of: B1
Conditions: with smad3_human SMAD3, P84022
Chain of smad3_human SMAD3, P84022 (P84022 whole entry, looked up): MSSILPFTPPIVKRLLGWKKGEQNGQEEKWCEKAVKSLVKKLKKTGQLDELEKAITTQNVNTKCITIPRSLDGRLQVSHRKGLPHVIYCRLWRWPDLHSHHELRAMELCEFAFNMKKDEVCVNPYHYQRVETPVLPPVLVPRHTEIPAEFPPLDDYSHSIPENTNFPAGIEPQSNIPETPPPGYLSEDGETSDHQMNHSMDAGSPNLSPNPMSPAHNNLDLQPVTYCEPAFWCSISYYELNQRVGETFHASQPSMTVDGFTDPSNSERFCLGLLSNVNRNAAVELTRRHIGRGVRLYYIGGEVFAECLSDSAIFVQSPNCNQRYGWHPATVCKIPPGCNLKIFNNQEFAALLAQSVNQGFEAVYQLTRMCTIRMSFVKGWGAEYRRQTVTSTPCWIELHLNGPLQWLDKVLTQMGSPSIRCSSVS

Variant | effect of a mutation on the interaction
R189C | with no effect
Y353S | disrupting interaction strength
V539G | disrupting interaction strength
V407L | with no effect
G352R | disrupting interaction strength
R76I | with no effect
L533F | disrupting interaction strength

Variants of: B1
Conditions: with smad9_human SMAD9, O15198
Chain of smad9_human SMAD9, O15198 (O15198 whole entry): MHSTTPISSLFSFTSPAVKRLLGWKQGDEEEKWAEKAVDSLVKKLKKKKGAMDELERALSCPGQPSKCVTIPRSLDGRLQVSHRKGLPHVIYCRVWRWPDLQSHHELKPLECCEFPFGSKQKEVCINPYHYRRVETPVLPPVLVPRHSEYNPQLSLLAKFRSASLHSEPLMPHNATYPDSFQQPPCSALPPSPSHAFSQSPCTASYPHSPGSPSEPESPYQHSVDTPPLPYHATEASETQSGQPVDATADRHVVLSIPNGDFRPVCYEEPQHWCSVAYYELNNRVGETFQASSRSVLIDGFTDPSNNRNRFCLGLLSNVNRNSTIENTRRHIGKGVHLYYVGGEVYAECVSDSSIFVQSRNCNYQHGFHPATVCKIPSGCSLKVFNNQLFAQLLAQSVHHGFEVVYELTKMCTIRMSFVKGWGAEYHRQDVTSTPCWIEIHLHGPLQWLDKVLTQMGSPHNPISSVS

Variant | effect of a mutation on the interaction
Y353S | disrupting interaction strength
G352R | disrupting interaction strength
